# In US20230406885A1, “CYCLIC PEPTIDES FOR TRAPPING INTERLEUKIN-1 BETA” (MERCK SHARP & DOHME LLC, priority 2022, published 2023):
# *1 amine or outer side, *2 acyl side, *3 side chain or, on linkers, in order; H or OH if unused. [ ]: non-standard residue; d: D form. 3AzaPhe4AcPip = (S)-3-(6-(4-acetylpiperazin-1-yl)pyridin-3-yl)-2-aminopropanoic acid, CC(=O)N1CCN(c2ccc(C[C@H](N[*:1])C(=O)[*:2])cn2)CC1; Trp(4-Cl)(βS-Me) = C[C@@H](c1c[nH]c2cccc(Cl)c12)[C@H](N)C(=O)O; Ala(piperidin-4-yl) = O=C([C@H](CC1CCN([*:3])CC1)N[*:1])[*:2]; Pro(trans-4-NH2) = O=C([C@@H]1C[C@@H](N[*:3])CN1[*:1])[*:2]; Bip(4'-COOH) = N[C@@H](Cc1ccc(-c2ccc(C(=O)O)cc2)cc1)C(=O)O; 1Nal(3S-Me) = C[C@@H](c1cccc2ccccc12)[C@H](N)C(=O)O; Phe(4-COOH) = N[C@@H](Cc1ccc(C(=O)O)cc1)C(=O)O; h3Pal(5-CN) = N#Cc1cncc(CC[C@H](N)C(=O)O)c1; 1Nal = N[C@@H](Cc1cccc2ccccc12)C(=O)O; hTyr = N[C@@H](CCc1ccc(O)cc1)C(=O)O; 3Pal = N[C@@H](Cc1cccnc1)C(=O)O; 4Pal = N[C@@H](Cc1ccncc1)C(=O)O; dDab = NCC[C@@H](N)C(=O)O; Orn = NCCC[C@H](N)C(=O)O; dNMeA = CN[C@H](C)C(=O)O; Dap = NC[C@H](N)C(=O)O; Aib = CC(C)(N)C(=O)O
# B1: SEQ ID NO: 41 (peptide)
# peptide: cyclo([Bip(4'-COOH)]W[Phe(4-COOH)]G[Pro(trans-4-NH2)][Trp(4-Cl)(βS-Me)]D[dNMeA]G[Bip(4'-COOH)][Dap]S[dA][hTyr])
# SMILES: C[C@@H]1C(=O)NCC(=O)N[C@@H](Cc2ccc(-c3ccc(C(=O)O)cc3)cc2)C(=O)N[C@@H](CN)C(=O)N[C@@H](CO)C(=O)N[C@H](C)C(=O)N[C@@H](CCc2ccc(O)cc2)C(=O)N[C@@H](Cc2ccc(-c3ccc(C(=O)O)cc3)cc2)C(=O)N[C@@H](Cc2c[nH]c3ccccc23)C(=O)N[C@@H](Cc2ccc(C(=O)O)cc2)C(=O)NCC(=O)N2C[C@H](N)C[C@H]2C(=O)N[C@@H]([C@@H](C)c2c[nH]c3cccc(Cl)c23)C(=O)N[C@@H](CC(=O)O)C(=O)N1C
# B2: SEQ ID NO: 35 (peptide)
# peptide: cyclo([Bip(4'-COOH)]W[Phe(4-COOH)]G[Pro(trans-4-NH2)][Trp(4-Cl)(βS-Me)]D[dNMeA]G[Bip(4'-COOH)][1Nal]L[Aib]G)
# SMILES: CC(C)C[C@@H]1NC(=O)[C@H](Cc2cccc3ccccc23)NC(=O)[C@H](Cc2ccc(-c3ccc(C(=O)O)cc3)cc2)NC(=O)CNC(=O)[C@@H](C)N(C)C(=O)[C@H](CC(=O)O)NC(=O)[C@H]([C@@H](C)c2c[nH]c3cccc(Cl)c23)NC(=O)[C@@H]2C[C@@H](N)CN2C(=O)CNC(=O)[C@H](Cc2ccc(C(=O)O)cc2)NC(=O)[C@H](Cc2c[nH]c3ccccc23)NC(=O)[C@H](Cc2ccc(-c3ccc(C(=O)O)cc3)cc2)NC(=O)CNC(=O)C(C)(C)NC1=O
# B3: SEQ ID NO: 37 (peptide)
# peptide: cyclo([Bip(4'-COOH)]W[Phe(4-COOH)]G[Pro(trans-4-NH2)][Trp(4-Cl)(βS-Me)]D[dNMeA]G[Bip(4'-COOH)][1Nal][Orn][Aib]G)
# SMILES: C[C@@H]1C(=O)NCC(=O)N[C@@H](Cc2ccc(-c3ccc(C(=O)O)cc3)cc2)C(=O)N[C@@H](Cc2cccc3ccccc23)C(=O)N[C@@H](CCCN)C(=O)NC(C)(C)C(=O)NCC(=O)N[C@@H](Cc2ccc(-c3ccc(C(=O)O)cc3)cc2)C(=O)N[C@@H](Cc2c[nH]c3ccccc23)C(=O)N[C@@H](Cc2ccc(C(=O)O)cc2)C(=O)NCC(=O)N2C[C@H](N)C[C@H]2C(=O)N[C@@H]([C@@H](C)c2c[nH]c3cccc(Cl)c23)C(=O)N[C@@H](CC(=O)O)C(=O)N1C
# B4: SEQ ID NO: 38 (peptide)
# peptide: cyclo([Bip(4'-COOH)]W[Phe(4-COOH)]G[Pro(trans-4-NH2)][Trp(4-Cl)(βS-Me)]D[dNMeA]G[Bip(4'-COOH)][3Pal]S[dA][hTyr])
# SMILES: C[C@@H]1C(=O)NCC(=O)N[C@@H](Cc2ccc(-c3ccc(C(=O)O)cc3)cc2)C(=O)N[C@@H](Cc2cccnc2)C(=O)N[C@@H](CO)C(=O)N[C@H](C)C(=O)N[C@@H](CCc2ccc(O)cc2)C(=O)N[C@@H](Cc2ccc(-c3ccc(C(=O)O)cc3)cc2)C(=O)N[C@@H](Cc2c[nH]c3ccccc23)C(=O)N[C@@H](Cc2ccc(C(=O)O)cc2)C(=O)NCC(=O)N2C[C@H](N)C[C@H]2C(=O)N[C@@H]([C@@H](C)c2c[nH]c3cccc(Cl)c23)C(=O)N[C@@H](CC(=O)O)C(=O)N1C
# B5: SEQ ID NO: 40 (peptide)
# peptide: cyclo([Bip(4'-COOH)]W[Phe(4-COOH)]G[Pro(trans-4-NH2)][Trp(4-Cl)(βS-Me)]D[dNMeA]G[Bip(4'-COOH)][Ala(piperidin-4-yl)]S[dA][hTyr])
# SMILES: C[C@@H]1C(=O)NCC(=O)N[C@@H](Cc2ccc(-c3ccc(C(=O)O)cc3)cc2)C(=O)N[C@@H](CC2CCNCC2)C(=O)N[C@@H](CO)C(=O)N[C@H](C)C(=O)N[C@@H](CCc2ccc(O)cc2)C(=O)N[C@@H](Cc2ccc(-c3ccc(C(=O)O)cc3)cc2)C(=O)N[C@@H](Cc2c[nH]c3ccccc23)C(=O)N[C@@H](Cc2ccc(C(=O)O)cc2)C(=O)NCC(=O)N2C[C@H](N)C[C@H]2C(=O)N[C@@H]([C@@H](C)c2c[nH]c3cccc(Cl)c23)C(=O)N[C@@H](CC(=O)O)C(=O)N1C
# B6: SEQ ID NO: 31 (peptide)
# peptide: cyclo([Bip(4'-COOH)]W[Phe(4-COOH)]G[Pro(trans-4-NH2)][1Nal(3S-Me)]D[dNMeA]G[Bip(4'-COOH)]W[Dap][dA][hTyr])
# SMILES: C[C@@H]1C(=O)NCC(=O)N[C@@H](Cc2ccc(-c3ccc(C(=O)O)cc3)cc2)C(=O)N[C@@H](Cc2c[nH]c3ccccc23)C(=O)N[C@@H](CN)C(=O)N[C@H](C)C(=O)N[C@@H](CCc2ccc(O)cc2)C(=O)N[C@@H](Cc2ccc(-c3ccc(C(=O)O)cc3)cc2)C(=O)N[C@@H](Cc2c[nH]c3ccccc23)C(=O)N[C@@H](Cc2ccc(C(=O)O)cc2)C(=O)NCC(=O)N2C[C@H](N)C[C@H]2C(=O)N[C@@H]([C@@H](C)c2cccc3ccccc23)C(=O)N[C@@H](CC(=O)O)C(=O)N1C
# B7: SEQ ID NO: 4 (peptide)
# peptide: cyclo([3AzaPhe4AcPip]W[Phe(4-COOH)]G[Pro(trans-4-NH2)][1Nal(3S-Me)]D[dNMeA]G[Bip(4'-COOH)]W[Dap][dA][h3Pal(5-CN)])
# SMILES: CC(=O)N1CCN(c2ccc(C[C@@H]3NC(=O)[C@H](CCc4cncc(C#N)c4)NC(=O)[C@@H](C)NC(=O)[C@H](CN)NC(=O)[C@H](Cc4c[nH]c5ccccc45)NC(=O)[C@H](Cc4ccc(-c5ccc(C(=O)O)cc5)cc4)NC(=O)CNC(=O)[C@@H](C)N(C)C(=O)[C@H](CC(=O)O)NC(=O)[C@H]([C@@H](C)c4cccc5ccccc45)NC(=O)[C@@H]4C[C@@H](N)CN4C(=O)CNC(=O)[C@H](Cc4ccc(C(=O)O)cc4)NC(=O)[C@H](Cc4c[nH]c5ccccc45)NC3=O)cn2)CC1
# B8: SEQ ID NO: 36 (peptide)
# peptide: cyclo([Bip(4'-COOH)]W[Phe(4-COOH)]G[Pro(trans-4-NH2)][Trp(4-Cl)(βS-Me)]D[dNMeA]G[Bip(4'-COOH)][1Nal]L[Aib][hTyr])
# SMILES: CC(C)C[C@@H]1NC(=O)[C@H](Cc2cccc3ccccc23)NC(=O)[C@H](Cc2ccc(-c3ccc(C(=O)O)cc3)cc2)NC(=O)CNC(=O)[C@@H](C)N(C)C(=O)[C@H](CC(=O)O)NC(=O)[C@H]([C@@H](C)c2c[nH]c3cccc(Cl)c23)NC(=O)[C@@H]2C[C@@H](N)CN2C(=O)CNC(=O)[C@H](Cc2ccc(C(=O)O)cc2)NC(=O)[C@H](Cc2c[nH]c3ccccc23)NC(=O)[C@H](Cc2ccc(-c3ccc(C(=O)O)cc3)cc2)NC(=O)[C@H](CCc2ccc(O)cc2)NC(=O)C(C)(C)NC1=O
# B9: SEQ ID NO: 34 (peptide)
# peptide: cyclo([Bip(4'-COOH)]W[Phe(4-COOH)]G[Pro(trans-4-NH2)][Trp(4-Cl)(βS-Me)]D[dNMeA]G[Bip(4'-COOH)][1Nal][Dap][Aib][h3Pal(5-CN)])
# SMILES: C[C@@H]1C(=O)NCC(=O)N[C@@H](Cc2ccc(-c3ccc(C(=O)O)cc3)cc2)C(=O)N[C@@H](Cc2cccc3ccccc23)C(=O)N[C@@H](CN)C(=O)NC(C)(C)C(=O)N[C@@H](CCc2cncc(C#N)c2)C(=O)N[C@@H](Cc2ccc(-c3ccc(C(=O)O)cc3)cc2)C(=O)N[C@@H](Cc2c[nH]c3ccccc23)C(=O)N[C@@H](Cc2ccc(C(=O)O)cc2)C(=O)NCC(=O)N2C[C@H](N)C[C@H]2C(=O)N[C@@H]([C@@H](C)c2c[nH]c3cccc(Cl)c23)C(=O)N[C@@H](CC(=O)O)C(=O)N1C
# B10: SEQ ID NO: 39 (peptide)
# peptide: cyclo([Bip(4'-COOH)]W[Phe(4-COOH)]G[Pro(trans-4-NH2)][Trp(4-Cl)(βS-Me)]D[dNMeA]G[Bip(4'-COOH)][4Pal]S[dA][hTyr])
# SMILES: C[C@@H]1C(=O)NCC(=O)N[C@@H](Cc2ccc(-c3ccc(C(=O)O)cc3)cc2)C(=O)N[C@@H](Cc2ccncc2)C(=O)N[C@@H](CO)C(=O)N[C@H](C)C(=O)N[C@@H](CCc2ccc(O)cc2)C(=O)N[C@@H](Cc2ccc(-c3ccc(C(=O)O)cc3)cc2)C(=O)N[C@@H](Cc2c[nH]c3ccccc23)C(=O)N[C@@H](Cc2ccc(C(=O)O)cc2)C(=O)NCC(=O)N2C[C@H](N)C[C@H]2C(=O)N[C@@H]([C@@H](C)c2c[nH]c3cccc(Cl)c23)C(=O)N[C@@H](CC(=O)O)C(=O)N1C
# B11: SEQ ID NO: 32 (peptide)
# peptide: cyclo([Bip(4'-COOH)]W[Phe(4-COOH)]G[Pro(trans-4-NH2)][1Nal(3S-Me)]D[dNMeA]G[Bip(4'-COOH)]WG[dDab][hTyr])
# SMILES: C[C@@H]1C(=O)NCC(=O)N[C@@H](Cc2ccc(-c3ccc(C(=O)O)cc3)cc2)C(=O)N[C@@H](Cc2c[nH]c3ccccc23)C(=O)NCC(=O)N[C@H](CCN)C(=O)N[C@@H](CCc2ccc(O)cc2)C(=O)N[C@@H](Cc2ccc(-c3ccc(C(=O)O)cc3)cc2)C(=O)N[C@@H](Cc2c[nH]c3ccccc23)C(=O)N[C@@H](Cc2ccc(C(=O)O)cc2)C(=O)NCC(=O)N2C[C@H](N)C[C@H]2C(=O)N[C@@H]([C@@H](C)c2cccc3ccccc23)C(=O)N[C@@H](CC(=O)O)C(=O)N1C
# B12: SEQ ID NO: 33 (peptide)
# peptide: cyclo([Bip(4'-COOH)]W[Phe(4-COOH)]G[Pro(trans-4-NH2)][Trp(4-Cl)(βS-Me)]A[dNMeA]G[Bip(4'-COOH)][1Nal]L[Aib]G)
# SMILES: CC(C)C[C@@H]1NC(=O)[C@H](Cc2cccc3ccccc23)NC(=O)[C@H](Cc2ccc(-c3ccc(C(=O)O)cc3)cc2)NC(=O)CNC(=O)[C@@H](C)N(C)C(=O)[C@H](C)NC(=O)[C@H]([C@@H](C)c2c[nH]c3cccc(Cl)c23)NC(=O)[C@@H]2C[C@@H](N)CN2C(=O)CNC(=O)[C@H](Cc2ccc(C(=O)O)cc2)NC(=O)[C@H](Cc2c[nH]c3ccccc23)NC(=O)[C@H](Cc2ccc(-c3ccc(C(=O)O)cc3)cc2)NC(=O)CNC(=O)C(C)(C)NC1=O
# Target: Recombinant human IL-1β (BioLegend 579404) (human, UniProt P01584 117-269)
# Assay: cell-based or functional assay
row,MRC5 IC50 [nM],Binder
1,0.469,B1
2,0.16,B2
3,0.103,B3
4,0.217,B4
5,0.508,B5
6,0.0208,B6
7,0.0438,B7
8,0.0522,B8
9,0.0755,B9
10,0.232,B10
11,0.033,B11
12,0.544,B12
